Measured values published in patent US20240173421A1.
Where two headings read alike, the source gives them in different places.

Assays:
[1] = target: CD16a (FcγRIIIa) on Jurkat NFAT reporter cells (UniProt P08637); assay: cell-based or functional assay
[2] = target: Human FcγRI (Example 8) (human) (UniProt P12314); assay: BLI, receptor on SAX sensor
[3] = target: Human V158 FcγRIIIa (Example 8) (human) (UniProt P08637); assay: BLI, receptor on SAX sensor
[4] = target: Human F158 FcγRIIIa (Example 8) (human) (UniProt P08637); assay: BLI, receptor on SAX sensor
[5] = target: Human H131 FcγRIIa (Example 8) (human) (UniProt P12318); assay: BLI, receptor on SAX sensor
[6] = target: CD16a (FcγRIIIa) on Jurkat NFAT reporter cells (UniProt P08637)
[7] = target: CD16a (FcγRIIIa) on Jurkat NFAT reporter cells (UniProt P08637); remark: listed apart in the source
[8] = target: Human V158 FcγRIIIa (Example 8) (human) (UniProt P08637); assay: BLI; ratio to KD of the unconjugated antibody
[9] = target: Human F158 FcγRIIIa (Example 8) (human) (UniProt P08637); assay: BLI; ratio to KD of the unconjugated antibody
[10] = target: Human FcγRI (Example 8) (human) (UniProt P12314); assay: BLI; ratio to KD of the unconjugated antibody

Chain of CD16a (FcγRIIIa) on Jurkat NFAT reporter cells (P08637 17-254 limits assumed): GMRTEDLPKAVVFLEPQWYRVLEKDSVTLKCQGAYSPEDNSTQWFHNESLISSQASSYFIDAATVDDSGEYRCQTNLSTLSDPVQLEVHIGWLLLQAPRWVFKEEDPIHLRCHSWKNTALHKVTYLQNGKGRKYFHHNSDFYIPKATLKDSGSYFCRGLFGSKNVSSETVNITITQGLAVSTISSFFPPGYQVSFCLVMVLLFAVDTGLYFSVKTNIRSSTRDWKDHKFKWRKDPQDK

Question: Which CD16a NFAT EC50 [1] does the source give for “Anti-HER2 S239D I332E-mcPEG12(10) (antibody)” here?
Answer: Its CD16a NFAT EC50 is 71.2 ng/mL.

Question: Which results are given for Anti-HER2-mcPEG12(8) (antibody)?
Answer: Kd [2]: 9 nM; CD16a NFAT EC50 [1]: > 2000 ng/mL

Question: Which Kd [3] does the source give for Anti-HER2 S239D A330L I332E (antibody) here?
Answer: The Kd was 37 nM.

Question: And the koff [3]?
Answer: Its koff is 0.028 s⁻¹.

Question: What about the kon [3] of the same substance?
Answer: Its kon is 750000 M⁻¹ s⁻¹.

Question: What about the Kd [4] of the same substance?
Answer: Its Kd is 95 nM.

Question: What about the koff [4] of the same substance?
Answer: The koff was 0.049 s⁻¹.

Question: What about the kon [4] of the same substance?
Answer: The kon was 520000 M⁻¹ s⁻¹.

Question: And the Kd [5]?
Answer: Its Kd is 2100 nM.

Question: What about the koff [5] of the same substance?
Answer: The koff was 0.38 s⁻¹.

Question: What about the kon [5] of the same substance?
Answer: Its kon is 190000 M⁻¹ s⁻¹.

Question: What about the Kd [2] of the same substance?
Answer: Its Kd is 0.12 nM.

Question: What about the koff [2] of the same substance?
Answer: Its koff is 6.8e-05 s⁻¹.

Question: And the kon [2]?
Answer: The kon was 590000 M⁻¹ s⁻¹.

Question: And the CD16a NFAT EC50 [1]?
Answer: The CD16a NFAT EC50 was 0.7 ng/mL.

Question: How did the EC50 (read off the curve), FcγRIIIa NFAT reporter assay [6] turn out when obinituzumab-AF (antibody) was run?
Answer: The EC50 (read off the curve), FcγRIIIa NFAT reporter assay was 0.7 ng/mL.

Question: obinituzumab-WT (antibody) was tested. Which EC50 (read off the curve), FcγRIIIa NFAT reporter assay [6] did it give?
Answer: The EC50 (read off the curve), FcγRIIIa NFAT reporter assay was 7 ng/mL.

Question: Which EC50 (read off the curve), FcγRIIIa NFAT reporter assay [7] does the source give for rituximab-WT (antibody) here?
Answer: Its EC50 (read off the curve), FcγRIIIa NFAT reporter assay is 8 ng/mL.

Question: With “Anti-HER2 S239D I332E-mcPEG12(8) (antibody)” as the substance, how does the Kd [2] read?
Answer: Its Kd is 1 nM.

Question: How did the Kd [3] turn out when “Anti-HER2 S239D A330L I332E-mcPEG12(10) (antibody)” was run?
Answer: Its Kd is 2900 nM.

Question: What about the koff [3] of the same substance?
Answer: Its koff is 0.085 s⁻¹.

Question: And the kon [3]?
Answer: Its kon is 29000 M⁻¹ s⁻¹.

Question: What about the Kd [4] of the same substance?
Answer: The Kd was 3800 nM.

Question: What about the koff [4] of the same substance?
Answer: The koff was 0.077 s⁻¹.

Question: And the kon [4]?
Answer: Its kon is 20000 M⁻¹ s⁻¹.

Question: And the Kd [2]?
Answer: Its Kd is 1.2 nM.

Question: And the koff [2]?
Answer: Its koff is 0.00011 s⁻¹.

Question: What about the kon [2] of the same substance?
Answer: The kon was 95000 M⁻¹ s⁻¹.

Question: What about the KD Fold change [8] of the same substance?
Answer: Its KD Fold change is 78.4 fold.

Question: And the KD Fold change [9]?
Answer: The KD Fold change was 40 fold.

Question: And the KD Fold change [10]?
Answer: The KD Fold change was 10 fold.

Question: And the CD16a NFAT EC50 [1]?
Answer: The CD16a NFAT EC50 was 83.5 ng/mL.

Question: With rituximab-AF (antibody) as the substance, how does the EC50 (read off the curve), FcγRIIIa NFAT reporter assay [7] read?
Answer: The EC50 (read off the curve), FcγRIIIa NFAT reporter assay was 1 ng/mL.

Question: Which Kd [2] does the source give for Anti-HER2 S239D I332E (antibody) here?
Answer: Its Kd is 0.1 nM.

Question: And the CD16a NFAT EC50 [1]?
Answer: Its CD16a NFAT EC50 is 1.5 ng/mL.
